Where a chain is given by its changes, count along the chain named.
T1: HisCD74v1 (recombinant extracellular domain of human CD74 variant 1, N-terminal hexameric His tag) (human, UniProt P04233 73-296)
T1 construct: also called recombinant CD74v1; CD74v1 extracellular domain
T1 sequence: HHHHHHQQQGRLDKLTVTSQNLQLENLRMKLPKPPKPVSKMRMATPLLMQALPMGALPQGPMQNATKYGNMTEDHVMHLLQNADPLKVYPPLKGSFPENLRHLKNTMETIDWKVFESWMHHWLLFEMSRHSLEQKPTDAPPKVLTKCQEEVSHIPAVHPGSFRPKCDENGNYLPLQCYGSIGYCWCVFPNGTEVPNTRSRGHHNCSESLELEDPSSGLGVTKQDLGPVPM

T2: HisCD74v2 (recombinant extracellular domain of human CD74 variant 2, N-terminal hexameric His tag) (human, UniProt P04233 73-296)
T2 construct: also called recombinant CD74v2; CD74v2 extracellular domain
T2 sequence: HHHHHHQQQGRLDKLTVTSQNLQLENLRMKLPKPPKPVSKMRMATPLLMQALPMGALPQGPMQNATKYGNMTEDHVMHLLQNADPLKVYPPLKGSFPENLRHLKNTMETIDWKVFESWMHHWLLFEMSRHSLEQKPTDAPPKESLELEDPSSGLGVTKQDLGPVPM

B1: HuMab-CD74-008 (antibody, V domains shown)
VH: QVQLVESGGGVVQPGRSLRLSCAASGFTFSSYAMHWVRQAPGKGLEWVAVISYDGSNKYYADSVKGRFTISRDNSKNTLYLQMNSLRAEDTAVYYCARGREITSQNIVILLDYWGQGTLVTVSS
VL: DIQMTQSPSSLSASVGDRVTITCRASQGISSWLAWYQQKPEKAPKSLIYAASSLQSGVPSRFSGSGSGTDFTLTISSLQPEDFATYYCQQYNSYPLTFGGGTKVEIK
notes: Human IgG,kappa antibody (HuMab) produced transiently in HEK-293F cells; also called antibody 008
B2: HuMab-CD74-005 (antibody, human IgG1, V domains shown)
VH: QVQLVESGGGVVQPGRSLRLSCAASGFTFSSYAMHWVRQAPGKGLEWVAVISYDGSNKYYADSVKGRFTISRDNSKNTLYLQMNSLRAEDTAVYYCASGRYYGSGSYSSYFDYWGQGTLVTVSS
VL: B1 VL with Y36F
notes: Human IgG1,kappa; produced transiently in HEK-293F cells; also called antibody 005
B3: HuMab-CD74-005-mcMMAF (antibody, IgG1, V domains shown)
VH: B2 VH
VL: B1 VL with Y36F
modifications: drug-linker mcMMAF alkylated to the cysteines of the reduced antibody (DAR 3.9-4.0)
notes: Antibody-drug conjugate of HuMab-CD74-005 (IgG1,kappa); also called mcMMAF-conjugate of HuMab-CD74-005
B4: HuMab-CD74-005-vcMMAE (antibody, IgG1, V domains shown)
VH: B2 VH
VL: B1 VL with Y36F
modifications: drug-linker vcMMAE alkylated to the cysteines of the reduced antibody (DAR 3.9-4.0)
notes: Antibody-drug conjugate of HuMab-CD74-005 (IgG1,kappa); also called vcMMAE-conjugate of HuMab-CD74-005

Tests used:
[1] = molecular target: human CD74, naturally expressed on cells (Raji, Daudi, M4A4, NCI-H747 cells; human tonsil tissue) (human) (UniProt P04233); assay: cell-based or functional assay
[2] = molecular target: T1, HisCD74v1 (recombinant extracellular …); assay: ELISA, coated recombinant CD74v1 extracellular domain
Protocol: (§1) ELISA plates (Greiner BioOne) were coated 0/N at 4° C. with 2 μg/mL, 100 μL per well, recombinant CD74v1 or CD74v2 in PBS (B. Braun Melsungen AG). Sequences and production of the isoforms were described supra. ELISA wells were washed three times with PBS containing 0.05% Tween-20 (PBST), emptied, and blocked with 1% (w/v) BSA fraction V (Roche) in PBS at RT for 1 h while shaking (300 rpm), and emptied. Subsequently, 100 μL anti-CD74 HuMab antibodies were added in serial dilutions in 0.2% (w/v) BSA fraction V in PBST (assay buffer) and incubated while shaking at RT for 90 min. ELISA plates were washed three times with PBST, emptied, and bound HuMab antibodies were detected using HRP-conjugated goat-anti human IgG (100 μL; 1:5,000; Peroxidase Affinipure Goat anti-human IgG, F(ab′)2 Fragment Specific [min X Bov,Hrs,Ms Sr Prot]; Jackson Immunoresearch) in assay buffer and incubated while shaking at RT for 90 min. Plates were washed three times with PBST, emptied, and incubated with 100 μL ABTS solution (50 ml ABTS buffer [Roche] and one ABTS tablet [50 mg; Roche]). After incubation in the dark at RT for 30 min, the reaction was stopped by addition of 100 μL per well oxalic acid (2% [w/v]). Plates were measured at OD 405 nm in an ELISA reader (Biotek Instruments, EL808 Absorbance Microplate Reader).
(§2) Isotype control Ab IgG1-b12 was used as a negative control. Binding curves were analyzed using non-linear regression (sigmoidal dose-response with variable slope) using GraphPad Prism 5 software (GraphPad Software, San Diego, Calif., USA).

[3] = molecular target: human CD74, naturally expressed on cells (Raji, Daudi, M4A4, NCI-H747 cells; human tonsil tissue) (human) (UniProt P04233); assay: FACS on Daudi cells at 0° C., Alexa-488-labeled antibody displaced by excess unlabeled antibody
[4] = molecular target: T2, HisCD74v2 (recombinant extracellular …); assay: ELISA, coated recombinant CD74v2 extracellular domain
Protocol: as §1, §2

[5] = molecular target: human CD74, naturally expressed on cells (Raji, Daudi, M4A4, NCI-H747 cells; human tonsil tissue) (human) (UniProt P04233); assay: FACS on Daudi cells, 10 µg/mL; mean of three experiments
[6] = molecular target: T1, HisCD74v1 (recombinant extracellular …); assay: ELISA, coated recombinant CD74v1 extracellular domain (CD74ECDHis); mean of four experiments
Protocol: ELISA plates (Greiner BioOne) were coated with 2 μg/mL, 100 μL per well, recombinant CD74ECDHis in PBS (B. Braun Melsungen AG) at 4° C., 0/N. ELISA plates were emptied and blocked with 200 μL/well PBS containing 0.05% Tween-20 (PBST) while shaking (300 rpm), at RT for 1 hour, washed three times with 300 μL PBST and emptied. Subsequently, 100 μL anti-CD74 ADCs or unconjugated CD74-specific HuMab antibodies were added in serial dilutions in PBST and incubated while shaking at RT for 2 hours. ELISA plates were washed with PBST and emptied. Bound anti-CD74 ADCs and unconjugated HuMab antibodies were detected by addition of HRP-conjugated mouse-anti human IgG1 (100 μL; 0.015 μg/mL; Sanquin; # M1328) in PBST and incubation while shaking, at RT for 2 hours. Plates were washed with PBST, emptied and incubated with 100 μL ABTS solution (50 ml ABTS buffer [Roche] and one ABTS tablet [50 mg; Roche]). After incubation in the dark while shaking, at RT for 30 min, the reaction was stopped by incubation with 100 μL per well oxalic acid (2% [w/v]; Riedel de Haen) in the dark while shaking, for 10 min. Plates were measured at OD 405 nm in an ELISA reader (Biotek Instruments, EL808 Absorbance Microplate Reader).
IgG1-b12, an antibody binding to a non-related antigen, was used as a negative control (both unconjugated as well as in ADC format). Binding curves were analyzed by non-linear regression (sigmoidal dose-response with variable slope) using GraphPad Prism 5 software (GraphPad Software, San Diego, Calif., USA).

[7] = molecular target: human CD74, naturally expressed on cells (Raji, Daudi, M4A4, NCI-H747 cells; human tonsil tissue) (human) (UniProt P04233); assay: FACS on Daudi cells; mean of three experiments

| Molecule | % viability (minimal) of Raji cells, anti-kappa-ETA' assay [1] | EC50 [2] | koff [3] | time until half of the bound labeled antibody was replaced [3] | EC50 [4] | Maximal binding (MFI at 10 µg/mL) [5] | EC50 [6] | EC50 [7] | % kill of Daudi cells at 10 µg/mL [1] | % kill of M4A4 cells at 10 µg/mL [1] | % kill of NCI-H747 cells at 10 µg/mL [1] | % kill of Raji cells at 10 µg/mL [1] | IC50 of killing of Daudi cells [1] | IC50 of killing of M4A4 cells [1] | IC50 of killing of Raji cells [1] | IC50 of killing of NCI-H747 cells [1] |
| --- | --- | --- | --- | --- | --- | --- | --- | --- | --- | --- | --- | --- | --- | --- | --- | --- |
| IgG1-b12 (antibody) | 85.9% | – | – | – | – | – | – | – | – | – | – | – | – | – | – | – |
| B1 | – | 1.39 µg/mL | 0.00333 s⁻¹ | 4 min | 0.759 µg/mL | – | – | – | – | – | – | – | – | – | – | – |
| B2 | – | – | – | – | – | 2780 MFI | 0.03 µg/mL | 1.27 µg/mL | – | – | – | – | – | – | – | – |
| B3 | – | – | – | – | – | 2530 MFI | 0.04 µg/mL | 1.05 µg/mL | 90% | 97% | 5% | 92% | 0.03 µg/mL | 0.38 µg/mL | 0.05 µg/mL | – |
| B4 | – | – | – | – | – | 2860 MFI | 0.04 µg/mL | 0.26 µg/mL | 85% | 100% | 41% | 88% | 0.08 µg/mL | 0.56 µg/mL | 0.11 µg/mL | 7.48 µg/mL |

From patent US20170173151A1 (Genmab, published 2017)
